The values below come from article doi:10.1101/2025.09.11.675469.

The target in data set [1] is T1, LIN28A (UniProt Q9H9Z2 1-209).
T1 sequence: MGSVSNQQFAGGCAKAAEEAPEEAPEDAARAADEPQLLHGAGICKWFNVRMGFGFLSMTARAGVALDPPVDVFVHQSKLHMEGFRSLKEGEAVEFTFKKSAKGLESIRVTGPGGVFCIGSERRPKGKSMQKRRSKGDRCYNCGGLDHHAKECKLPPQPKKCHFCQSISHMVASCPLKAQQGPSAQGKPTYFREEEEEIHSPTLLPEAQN
Nature of the data set: EMSA. For orientation: In EMSA bound probe runs differently from free probe, usually more slowly.

For data set [2], the target named is T1, LIN28A. Nature of the data set: EMSA. The source holds these as a separate data set.

Read-outs that look alike come from different tables or passages of the source.

B1: HOXB9 original (structured_RNA)
RNA: GGGACAAGUGGUCUGGGACAGGGAGGAGCAAC
Turning to B1, the binding result in data set [1] was “binds”.

B2: HOXB9 m6A (structured_RNA)
RNA: B1 RNA
modifications: one m6A; position marked only by red colour (not recoverable from text)
Take B2: the binding result in data set [2] is “binds”.
